In US20150086555A1:

B1: TCN-550 (5096_F06) (antibody, V domains shown)
VH: QVQLQESGPGLVKPSETLSLTCTVSGASINSHYWSWIRQPPGKGLEWIGYVYYSGSTTYNPSLKSRVTLSVDTSKNQFSLNLSSVTAADTAFYYCARHPYDVLTGSGDWFDPWGQGTLVTVSS
VL: SYVLTQAPSVSVAPGQTARITCGGNAIGSKKVHWYQHKAGQAPVLVVYDDTDRPSGIPERFSGSNSWSTATLTINRVEAGDEADYYCQVWDFTIDHVVFGGGTKLTVL
B2: TCN-543 (5081_G23) (antibody, V domains shown)
VH: QVHLVQSGAEVRKPGDSVKVSCKTSGYTFSTYPVAWVRQVPGQGLEWMGWISTYNGNTNFAQNFQGRVTLTTDTTTNTAYMEVRSLKFDDTAVYYCARVEGSYRDFWNNQNRFDPWGQGTLVTVSS
VL: SYVLTQPPSVSVAPGQTARISCGGSNIGGKSVHWYQQKPGQAPVLVVYDDSGRPSGIPERFSGSNSGDTATLTISRVEAGDEADYFCQVWDNFGGVFGTGTKVTVL
B3: TCN-530 (5248_H10a) (antibody, V domains shown)
VH: QVQLVQSGAEVRKPGSSVKVSCKASGGPFMSYAIGWVRQAPGQGLEWMGGINPVFGRPHYAQKFQGRVTIATDDSTKTSYMELSSLTSEDTGMYYCASRYSRSSPGTFESWGQGTLVTVSS
VL: EIVMTQFPATLSVSPGERVTLSCRASQSVSNNLAWYQQKPGQPPRLLIYDASTRATGVPAKFSGTGSGTEFTLSISSLQSEDFAVYYCQQYHNWPPSYSFGLGTKLEIK
B4: TCN-535 (5246_P19) (antibody, V domains shown)
VH: QVQLVQSGSEVKKPGTSVKVSCTASGSVFTNYGISWVRQAPGQGLEWMGGIIPLFGAAKYAQKFQGRVTITADESTKTVYMELSRLTSKDTAIYFCAKAPRVYEYYFDQWGQGTPVTVSS
VL: EIVLTQSPGTLSLSPGERATLSCRASQSVSSSQLAWYQQKPGQAPRLIIYGASTRATGIPDRFSGSGSGTDFTLTIGRLEPEDFAVFFCQQYSTSPPTFGQGTKVDFK

Biological target: recombinant soluble homotrimeric HA of A/Wisconsin/67/05 (H3N2) (Influenza A virus A/Wisconsin/67/2005(H3N2))
Test: HA microarray, BCC supernatant
Conditions: remark: other sources report otherwise

Binder | Trimeric HA Binding: RLU [RLU]
B1 | 26300
B2 | 1360
B3 | 36800
B4 | 34300

Biological target: recombinant soluble homotrimeric HA of A/Japan/305/57 (H2N2) (Influenza A virus A/Japan/305/1957(H2N2))
Test: HA microarray, BCC supernatant
Conditions: remark: other sources report otherwise

Binder | Trimeric HA Binding: RLU [RLU]
B1 | 201
B2 | 197
B3 | 47000
B4 | 26100

Biological target: recombinant soluble homotrimeric HA of A/duck/Yangzhou/02/05 (H8N4) (Influenza A virus A/duck/Yangzhou/02/2005(H8N4))
Test: HA microarray, BCC supernatant
Conditions: remark: other sources report otherwise

Binder | Trimeric HA Binding: RLU [RLU]
B1 | 407
B3 | 41700
B4 | 36600

Biological target: recombinant soluble homotrimeric HA of A/Anhui/1/05 (H5N1) (Influenza A virus A/Anhui/1/2005(H5N1))
Test: HA microarray, BCC supernatant
Conditions: remark: other sources report otherwise

Binder | Trimeric HA Binding: RLU [RLU]
B1 | 1210
B3 | 11900
B4 | 6880

Biological target: recombinant soluble homotrimeric HA of A/swine/Ontario/01911-2/99 (H4N6) (Influenza A virus A/Swine/Ontario/01911-2/99 (H4N6))
Test: HA microarray, BCC supernatant
Conditions: remark: other sources report otherwise

Binder | Trimeric HA Binding: RLU [RLU]
B1 | 195
B2 | 428
B3 | 2740
B4 | 5950

Biological target: recombinant soluble homotrimeric HA of A/northern shoveler/California/HKWF115/07 (H6) (Influenza A virus A/northern shoveler/California/HKWF115/2007(H6N1))
Test: HA microarray, BCC supernatant
Conditions: remark: other sources report otherwise

Binder | Trimeric HA Binding: RLU [RLU]
B1 | 964
B2 | 2130
B3 | 45300
B4 | 48200

Biological target: recombinant soluble homotrimeric HA of A/California/4/09 (H1N1) (Influenza A virus A/California/04/2009(H1N1))
Test: HA microarray, BCC supernatant
Conditions: remark: other sources report otherwise

Binder | Trimeric HA Binding: RLU [RLU]
B1 | 454
B3 | 46600
B4 | 48600

Biological target: recombinant soluble homotrimeric HA of A/Solomon Islands/3/06 (H1N1) (Influenza A virus A/Solomon Islands/3/2006(H1N1))
Test: HA microarray, BCC supernatant
Conditions: remark: other sources report otherwise

Binder | Trimeric HA Binding: RLU [RLU]
B1 | 204
B2 | 511
B3 | 32800
B4 | 39400

Biological target: recombinant soluble homotrimeric HA of A/Vietnam/1203/04 (H5N1) (Influenza A virus A/VietNam/1203/2004(H5N1))
Test: HA microarray, BCC supernatant
Conditions: remark: other sources report otherwise

Binder | Trimeric HA Binding: RLU [RLU]
B1 | 277
B2 | 488
B3 | 7150
B4 | 4740

Biological target: recombinant soluble homotrimeric HA of A/Hong Kong/2108/03 (H9N2) (Influenza A virus A/HK/2108/2003(H9N2))
Test: HA microarray, BCC supernatant
Conditions: remark: other sources report otherwise

Binder | Trimeric HA Binding: RLU [RLU]
B1 | 2280
B2 | 131
B3 | 486
B4 | 861

Biological target: recombinant soluble homotrimeric HA of A/Netherlands/219/03 (H7N7) (Influenza A virus A/Netherlands/219/03(H7N7))
Test: HA microarray, BCC supernatant
Conditions: remark: other sources report otherwise

Binder | Trimeric HA Binding: RLU [RLU]
B1 | 939
B2 | 661
B3 | 2900
B4 | 4760

Biological target: recombinant soluble homotrimeric HA of A/chicken/Vietnam/NCVD-016/08 (H5N1) (Influenza A virus A/chicken/Vietnam/NCVD-016/2008(H5N1))
Test: HA microarray, BCC supernatant
Conditions: remark: other sources report otherwise

Binder | Trimeric HA Binding: RLU [RLU]
B1 | 361
B3 | 48300
B4 | 50000

Biological target: recombinant soluble homotrimeric HA of A/Indonesia/5/05 (H5N1) (Influenza A virus A/Indonesia/5/2005(H5N1))
Test: HA microarray, BCC supernatant
Conditions: remark: other sources report otherwise

Binder | Trimeric HA Binding: RLU [RLU]
B1 | 9100
B3 | 39800
B4 | 45600

Biological target: recombinant homotrimeric HA A/Hong Kong/156/97 H5N1 (Influenza A virus A/Hong Kong/156/97 (H5N1))
Test: protein microarray, purified IgG, trimeric HA
Conditions: remark: other sources report otherwise

Binder | Trimeric HA Binding: RLU [RLU]
B1 | 304
B2 | 112
B3 | 14000
B4 | 13200

Biological target: recombinant homotrimeric HA A/Vietnam/1203/04 H5N1 (Influenza A virus A/VietNam/1203/2004(H5N1))
Test: protein microarray, purified IgG, trimeric HA
Conditions: remark: other sources report otherwise

Binder | Trimeric HA Binding: RLU [RLU]
B1 | 829
B2 | 640
B3 | 19100
B4 | 20800

Biological target: recombinant homotrimeric HA A/Indonesia/5/05 H5N1 (Influenza A virus A/Indonesia/5/2005(H5N1))
Test: protein microarray, purified IgG, trimeric HA
Conditions: remark: other sources report otherwise

Binder | Trimeric HA Binding: RLU [RLU]
B2 | 91
B3 | 10900
B4 | 17900

Biological target: recombinant homotrimeric HA A/Wisconsin/67/05 H3N2 (Influenza A virus A/Wisconsin/67/2005(H3N2))
Test: protein microarray, purified IgG, trimeric HA
Conditions: remark: other sources report otherwise

Binder | Trimeric HA Binding: RLU [RLU]
B1 | 21300
B2 | 302
B3 | 132
B4 | 148

Biological target: recombinant homotrimeric HA A/chicken/Vietnam/NCVD-016/08 H5N1 (Influenza A virus A/chicken/Vietnam/NCVD-016/2008(H5N1))
Test: protein microarray, purified IgG, trimeric HA
Conditions: remark: other sources report otherwise

Binder | Trimeric HA Binding: RLU [RLU]
B1 | 295
B3 | 2050
B4 | 2630

Biological target: recombinant homotrimeric HA A/Egypt/3300-NAMRU3/08 H5N1 (Influenza A virus A/Egypt/3300-NAMRU3/2008(H5N1))
Test: protein microarray, purified IgG, trimeric HA
Conditions: remark: other sources report otherwise

Binder | Trimeric HA Binding: RLU [RLU]
B1 | 3530
B2 | 580
B3 | 12300
B4 | 18100

Biological target: recombinant homotrimeric HA A/South Carolina/1/18 H1N1 (Influenza A virus A/South Carolina/1/18 (H1N1))
Test: protein microarray, purified IgG, trimeric HA
Conditions: remark: other sources report otherwise

Binder | Trimeric HA Binding: RLU [RLU]
B1 | 104
B2 | 259
B3 | 7360
B4 | 5660

Biological target: recombinant homotrimeric HA A/northern shoveler/California/HKWF115/07 H6N4 (Influenza A virus A/northern shoveler/California/HKWF115/2007(H6N1))
Test: protein microarray, purified IgG, trimeric HA
Conditions: remark: other sources report otherwise

Binder | Trimeric HA Binding: RLU [RLU]
B1 | 106
B2 | 101
B3 | 9010
B4 | 5880

Biological target: recombinant homotrimeric HA A/Japan/305/57 H2N2 (Influenza A virus A/Japan/305/1957(H2N2))
Test: protein microarray, purified IgG, trimeric HA
Conditions: remark: other sources report otherwise

Binder | Trimeric HA Binding: RLU [RLU]
B1 | 499
B2 | 14000
B3 | 9040
B4 | 13000

Biological target: recombinant homotrimeric HA A/Hong Kong/2108/03 H9N2 (Influenza A virus A/HK/2108/2003(H9N2))
Test: protein microarray, purified IgG, trimeric HA
Conditions: remark: other sources report otherwise

Binder | Trimeric HA Binding: RLU [RLU]
B1 | 150
B2 | 135
B3 | 169

Biological target: recombinant homotrimeric HA A/California/4/09 H1N1 (Influenza A virus A/California/04/2009(H1N1))
Test: protein microarray, purified IgG, trimeric HA
Conditions: remark: other sources report otherwise

Binder | Trimeric HA Binding: RLU [RLU]
B1 | 238
B3 | 14200
B4 | 17200

Biological target: recombinant homotrimeric HA A/Anhui/1/05 H5N1 (Influenza A virus A/Anhui/1/2005(H5N1))
Test: protein microarray, purified IgG, trimeric HA
Conditions: remark: other sources report otherwise

Binder | Trimeric HA Binding: RLU [RLU]
B1 | 4780
B2 | 601
B4 | 6700

Biological target: recombinant homotrimeric HA A/Hong Kong/1073/99 H9N2 (Influenza A virus A/Hong Kong/1073/99 (H9N2))
Test: protein microarray, purified IgG, trimeric HA
Conditions: remark: other sources report otherwise

Binder | Trimeric HA Binding: RLU [RLU]
B1 | 413
B2 | 9160
B3 | 874
B4 | 3470

Biological target: recombinant homotrimeric HA A/Netherlands/219/03 H7N7 (Influenza A virus A/Netherlands/219/03(H7N7))
Test: protein microarray, purified IgG, trimeric HA
Conditions: remark: other sources report otherwise

Binder | Trimeric HA Binding: RLU [RLU]
B1 | 223
B2 | 162
B3 | 402
B4 | 339

Biological target: recombinant homotrimeric HA A/Solomon Islands/3/06 H1N1 (Influenza A virus A/Solomon Islands/3/2006(H1N1))
Test: protein microarray, purified IgG, trimeric HA
Conditions: remark: other sources report otherwise

Binder | Trimeric HA Binding: RLU [RLU]
B1 | 752
B2 | 18300
B3 | 8570
B4 | 11300
